Data: patent US20180074079A1

Assays:
[1] = target: HDL in human plasma (human); test: EPR, increasing probe concentration in patient plasma
[2] = target: HDL in human plasma (human); test: EPR, center peak amplitude over time, 0.3 mg/ml probe in plasma of patient N1
[3] = target: HDL in human plasma (human); test: EPR, frozen and thawed plasma with higher TG concentration
[4] = target: HDL in human plasma (human); test: EPR, frozen and thawed plasma with higher TG concentration, third freeze-thaw
[5] = target: HDL in human plasma (human); test: EPR, frozen and thawed plasma
[6] = target: HDL in human plasma (human); test: EPR, center peak amplitude over time, 0.3 mg/ml probe in plasma of patient D1
[7] = target: HDL in human plasma (human); test: EPR, center peak amplitude over time, 0.3 mg/ml probe in plasma of patient M1
[8] = target: 9.6 nm POPC rHDL generated with Alexa 350 labeled apoA-I (human) (UniProt P02647); test: displacement/exchange, rHDL apoA-I to lipid-free apoA-I 1:5 molar, 37 C, NDGGE fluorescence
[9] = target: rHDL bearing apoA-IW19:A136 (human) (UniProt P02647); test: FRET (Trp19 to AEDANS136) exchange assay, rHDL to lipid-free protein 1:5 molar, 37 C
[10] = target: rHDL bearing apoA-IW19:A136 (human) (UniProt P02647); test: FRET exchange assay, rHDL to lipid-free protein 1:5 molar, 37 C
[11] = target: rHDL bearing apoA-IW19:A136 (human) (UniProt P02647); test: FRET exchange assay, biphasic fit

rHDL bearing apoA-IW19:A136 (human), sequence (P02647 other isoform, or with tags, fused parts or gaps): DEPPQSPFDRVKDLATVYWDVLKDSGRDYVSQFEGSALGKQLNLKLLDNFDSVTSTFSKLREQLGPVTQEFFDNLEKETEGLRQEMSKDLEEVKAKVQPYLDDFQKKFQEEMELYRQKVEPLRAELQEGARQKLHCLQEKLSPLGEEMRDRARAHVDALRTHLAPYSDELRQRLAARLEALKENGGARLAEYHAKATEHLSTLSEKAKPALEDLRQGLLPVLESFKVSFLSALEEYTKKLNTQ
9.6 nm POPC rHDL generated with Alexa 350 labeled apoA-I (human), sequence (P02647 25-267): as the sequence (P02647 other isoform, or with tags, fused parts or gaps) above, with F8W, W19V, F50W, F72W, F108W, C136E counted along it

apoA-ISL217 (apoA-I bearing a G217C mutation, cysteine derivatized with a thiosulfonate linked nitroxide spin label) (from UniProt P02647 25-267)
saturating concentration [1]: 1.9 mg/mL
time to binding (patient N1) [2]: < 5 min
decrease in EPR observable binding after freeze-thaw, plasma with higher TG [3]: 15%
decrease in EPR observable binding after freeze-thaw, plasma with higher TG [4]: 25%
reduction of rate and degree of binding after a freeze-thaw cycle [5]: 10%
reduction of rate and degree of binding after the third freeze-thaw [5]: 20%
time to maximal binding (patient D1) [6]: 10 min
time to maximal binding (patient M1) [7]: 8 min

unlabeled lipid-free apoA-I (from UniProt P02647 25-267)
release of Alexa350 labeled apoA-I from rHDL into the lipid-free pool [8]: > 90%

Trp Null apoA-I (four endogenous tryptophans substituted for phenylalanine) (from UniProt P02647 25-267)
exponential relaxation time (time to 50% maximal exchange, τ) [9]: 0.94 h

Trp Null apoA-I oxidized by the MPO-H2O2-nitrite system (from UniProt P02647 25-267)
exponential relaxation time of exchange (t1) [10]: 0.92 h
exponential relaxation time of exchange (t2) [10]: 18.8 h
exchange impaired population [11]: 57.3%
unaffected population [11]: 42.7%

Trp Null apoA-I oxidized by peroxynitrite (from UniProt P02647 25-267)
exponential relaxation time of exchange (t) [10]: 0.67 h
